B1: Ankyrin repeat and SAM domain-containing protein 6, residues 774 to 836; numbered along this chain, Q68DC2 (parent)
chain: DEDELTGILKKLSLEKYQPIFEEQEVDMEAFLTLTDGDLKELGIKTDGSRQQILAAISELNAG

Variants of: B1
Test: abundance fitness (aPCA) (normalised: wild type 0, dead -1); higher = more abundant; growth selection in yeast, the domain comes from the species named
Conditions: Homo sapiens

Abundance fitness of substitutions, site by site:
Y17: P -0.756; D -0.322; A -0.561; E -0.026; G -0.399; T -0.509; V -0.355; Q -0.339; M 0.031; K -0.426; F -0.045; H -0.505; N -0.344; C -0.255; W -0.043; L -0.127; S -0.49
A30: D -0.273; R 0.096; W -0.464; H 0.037; M -0.075; F -0.246; V -0.093; K 0.001; I -0.164; Y -0.218; N -0.049; E -0.073; L -0.089; C -0.02; S -0.015; T -0.125; P -0.784
D27: P -0.483; Q -0.44; C -0.376; V -0.988; R -0.215; H -0.282; E -0.294; K -0.212; F -1.25; W -0.857; Y -0.729; L -0.895; I -0.827; S -0.075; T 0.001; A -0.47
I20: Y -0.273; T -0.096; M 0.09; W -0.252; F -0.352; R -0.046; G -0.494; S -0.301; E -0.299; N -0.015; H -0.213; Q -0.083; V 0.101; K -0.104; C 0.015; D -0.091; A -0.111; P -0.617; L -0.124
S13: W -0.472; I -0.202; T -0.127; F -0.62; V -0.567; N 0.039; H 0.075; L -0.497; P -0.736; Y -0.623; R -0.04; Q 0.042; A -0.067; E -0.002; D 0.131
E23: S -0.168; L -0.419; V -0.593; N -0.165; H -0.429; R -0.06; Y -0.543; T -0.231; A -0.062; M -0.318; C -0.409; P -0.95; K -0.085; Q -0.17; G -0.229; D -0.155; I -0.317
P19: I -0.509; F -0.285; T -0.138; Q -0.21; S -0.094; G -0.116; N -0.059; L -0.456; R -0.116; H 0.005; Y -0.234; M -0.035; C -0.247; V -0.346; W -0.208; K -0.416; A -0.073; D -0.023
L12: P -1.16; S -0.531; Q -0.567; R -0.538; T -0.35; Y 0.09; W -0.061; V -0.369
E15: Q -0.037; P -0.687; R -0.53; N -0.492; C -0.343; G -0.433; A -0.271; F -0.505; L -0.185; V -0.36; I -0.323; T -0.21; D -0.158; K -0.869; S -0.143; W -0.657; M -0.123
V26: Q -0.589; F -0.177; T -0.479; A -0.542; S -0.649; C -0.353; G -0.539; N -0.664; L -0.145; H -0.74; E -0.532; I -0.056; Y -0.327; R -0.588; M -0.024; K -0.425; W -0.405; D -0.821
L14: K -0.918; Y -0.97; F -0.583; I -0.332; M -0.303; A -0.94; Q -1.17; H -1.01; V -0.655; N -1.42; W -0.946; E -0.777; T -1.37; C -0.64; G -1.05; P -0.845
F21: S -0.615; E -0.36; G -0.579; W -0.847; I -0.615; M -0.372; H -0.629; T -0.589; P -0.65; R -0.609; C -0.697; V -0.595; K -0.556; L -0.222; A -0.348; N -0.553
M28: K -0.025; V -0.219; A -0.055; E -0.437; R -0.159; C -0.319; L -0.155; D -0.466; P -0.168; F -0.132; Q -0.29; I -0.202; H -0.218; T 0.007; Y -0.106; N -0.315; S -0.094; G -0.213
E25: Q -0.204; L -0.293; P -0.653; K 0.301; S -0.08; I -0.281; W -0.449; A 0.023; N 0.006; T -0.412; D -0.159; F -0.166; M -0.038; C -0.073; V -0.21; G -0.023; H -0.048; Y -0.262; R -0.147
E22: D -0.149; T -0.093; F -0.402; K -0.103; G -0.388; M -0.091; S -0.059; W -0.743; Q -0.104; H -0.394; I -0.854; Y -0.231; C -0.299; A -0.107; L -0.179; V -0.256
K16: R -0.203; Q -0.253; A 0.074; C -0.083; H 0.011; I -0.408; S -0.103; M -0.084; F -0.339; G -0.135; E 0.175; P 0.001; Y -0.251; V -0.113
Q18: E -0.119; T -0.076; P -0.786; C -0.146; N -0.538; H -0.221; R -0.025; W -0.31; M -0.035; G -0.078; S -0.075; Y -0.539; F -0.407; A 0.07; I -0.051; V -0.12; D -0.344; L -0.092
Q24: K -0.042; R -0.096; Y -0.112; T -0.257; A -0.04; P -0.925; S -0.033; D -0.369; M -0.165; F -0.25; V -0.442; H -0.261; W -0.458; G -0.128; I -0.47
F31: E -0.384; V -0.342; K -0.362; C -0.797; W -0.432; G -0.443; P -0.469; S -0.513; I -0.343; D -0.51; L -0.305; R -0.426; H -0.586; M -0.329; N -0.441; A -0.37; Y -0.563; T -0.638
E29: P -0.105; D -0.107; S -0.228; F -0.648; C -0.338; Y -0.417; H -0.356; L -0.51; Q -0.097; V -0.334; T -0.123; G -0.162; A -0.025; M -0.318; K 0.099; N -0.32
L32: A -0.097; G -0.251; I -0.181; K 0.264; D -0.408; E -0.271
